The values below come from US20150362492A1 (DYAX, published 2015).

For the assay, the target named is T1, purified human plasma kallikrein (active form), biotinylated (human, UniProt P03952 20-390; P03952 391-638, biotinylated with Sulfo-NHS-LC-Biotin (sites not given)).
T1 construct: The protein was captured on avidin-coated plates through biotin; also called pKal; PKal
The assay can be described thus: complex ELISA: biotinylated kallikrein captured on avidin plate, incubated with plasma, bound C1-INH detected with polyclonal anti-C1-INH and alkaline phosphatase secondary antibody. The protocol:
Immulon 2HB plates were coated with 5 μg/ml avidin in coating buffer (100 μl) overnight at 4° C. Plates were washed three times using PBS-Tween (200 μl/each). Subsequently, 200 μl 1% BSA in PBS was added to block the unused sites. The plates were incubated at 37° C. for 1 hr. Plates were washed three times using PBS-Tween (200 μl/each). Added to the plates were: 25 μl standards or samples, 25 μl biotinylated […] and/or biotinylated kallikrein (1 μg/ml), and 50 μl binding buffer. Plates were mixed and incubated at 37° C. for 1 hour. Plates were washed three times using PBS-Tween (200 μl/each). A polyclonal antibody to C1-INH was added and incubated at room temperature for 1 hour. Plates were washed three times using PBS-Tween (200 μl/each). Alkaline phosphatase conjugated secondary antibody was added and incubated at room temperature for 1 hour. […] The OD at 450 nm was read and calculations were performed using the standard curve.
One consideration in development of the assay was that it is beneficial to employ an assay that quantitates functional C1-INH based on an enzyme that is requisite for bradykinin formation. […] Nevertheless, complex ELISA assays detecting functional interaction between C1-INH and either Factor XIIa or kallikrein worked well since only that fraction of kallikrein (˜60%) that is inhibited by C1-INH is detected.

T1 sequence (P03952 20-390, chain 1 of 2): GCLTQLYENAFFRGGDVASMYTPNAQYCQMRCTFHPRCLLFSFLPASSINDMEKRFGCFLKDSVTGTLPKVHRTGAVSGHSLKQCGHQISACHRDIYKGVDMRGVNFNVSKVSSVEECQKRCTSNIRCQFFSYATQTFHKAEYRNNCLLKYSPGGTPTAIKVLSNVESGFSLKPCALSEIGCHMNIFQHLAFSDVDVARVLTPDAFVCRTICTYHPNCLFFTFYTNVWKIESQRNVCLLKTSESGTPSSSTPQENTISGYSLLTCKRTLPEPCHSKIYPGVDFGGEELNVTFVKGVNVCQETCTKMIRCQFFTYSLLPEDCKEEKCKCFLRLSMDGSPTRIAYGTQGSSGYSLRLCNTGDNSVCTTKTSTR
T1 sequence (P03952 391-638, chain 2 of 2): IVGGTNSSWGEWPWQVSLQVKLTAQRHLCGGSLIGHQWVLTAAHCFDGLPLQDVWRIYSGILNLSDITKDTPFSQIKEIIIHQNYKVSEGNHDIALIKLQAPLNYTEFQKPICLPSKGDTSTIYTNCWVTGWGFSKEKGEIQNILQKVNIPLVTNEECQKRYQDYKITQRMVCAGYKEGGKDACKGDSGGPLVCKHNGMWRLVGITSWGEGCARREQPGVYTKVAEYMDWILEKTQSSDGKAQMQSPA

B1: plasma protease C1 inhibitor (C1-INH) in plasma of healthy (normal) controls (other)
chain: NPNATSSSSQDPESLQDRGEGKVATTVISKMLFVEPILEVSSLPTTNSTTNSATKITANTTDEPTTQPTTEPTTQPTIQPTQPTTQLPTDSPTQPTTGSFCPGPVTLCSDLESHSTEAVLGDALVDFSLKLYHAFSAMKKVETNMAFSPFSIASLLTQVLLGAGENTKTNLESILSYPKDFTCVHQALKGFTTKGVTSVSQIFHSPDLAIRDTFVNASRTLYSSSPRVLSNNSDANLELINTWVAKNTNNKISRLLDSLPSDTRLVLLNAIYLSAKWKTTFDPKKTRMEPFHFKNSVIKVPMMNSKKYPVAHFIDQTLKAKVGQLQLSHNLSLVILVPQNLKHRLEDMEQALSPSVFKAIMEKLEMSKFQPTLLTLPRIKVTTSQDMLSIMEKLEFFDFSYDLNLCGLTEDPDLQVSAMQHQTVLELTETGVEAAAASAISVARTLLVFEVQQPFLFVLWDQQHKFPVFMGRVYDPRA
notes: Native C1-INH as present in citrated plasma of healthy human controls (purified C1-INH in buffer was used for the standard curve); also called functional C1-INH
Turning to B1, the binding result is on record as “binds”.
